Results on one molecule are retold here after article PMC9692665 (2022).

This assay concerns the target Echovirus 3 (E3) mature full (F-) particle, genotype HNWY-01 strain (Echovirus 3 (genotype HNWY-01 strain)). The experiment in a line: SPR.

B1: monoclonal antibody 6D10 IgG (antibody, V domains shown)
VH: EVQLQQSGPELARPWASVKISCQAFYTFSNYGMQWVKQSPGQGLEWIGPFYPGNADTSYNQKFKGKATLTADKSSSTAYMQFSSLTSEDSAVYYCARVVATTDFDYWGQGTTVTVSS
VL: not shown
By koff is commonly meant the rate constant with which the complex falls apart. Consider B1, for which the koff amounted to 5.1e-05 s⁻¹.
